Reference: US10005846 (LIFEARC, dated 2018)

T1: human transglutaminase type 2 (TG2) (human, UniProt P21980 1-687)
T1 construct: Recombinant full-length human TG2 (Zedira; cat; T002 in the Biacore work); Also used here for the endogenous TG2 of HepG2 lysate and HK-2 cells; also called hTG2; rhTG2
T1 sequence: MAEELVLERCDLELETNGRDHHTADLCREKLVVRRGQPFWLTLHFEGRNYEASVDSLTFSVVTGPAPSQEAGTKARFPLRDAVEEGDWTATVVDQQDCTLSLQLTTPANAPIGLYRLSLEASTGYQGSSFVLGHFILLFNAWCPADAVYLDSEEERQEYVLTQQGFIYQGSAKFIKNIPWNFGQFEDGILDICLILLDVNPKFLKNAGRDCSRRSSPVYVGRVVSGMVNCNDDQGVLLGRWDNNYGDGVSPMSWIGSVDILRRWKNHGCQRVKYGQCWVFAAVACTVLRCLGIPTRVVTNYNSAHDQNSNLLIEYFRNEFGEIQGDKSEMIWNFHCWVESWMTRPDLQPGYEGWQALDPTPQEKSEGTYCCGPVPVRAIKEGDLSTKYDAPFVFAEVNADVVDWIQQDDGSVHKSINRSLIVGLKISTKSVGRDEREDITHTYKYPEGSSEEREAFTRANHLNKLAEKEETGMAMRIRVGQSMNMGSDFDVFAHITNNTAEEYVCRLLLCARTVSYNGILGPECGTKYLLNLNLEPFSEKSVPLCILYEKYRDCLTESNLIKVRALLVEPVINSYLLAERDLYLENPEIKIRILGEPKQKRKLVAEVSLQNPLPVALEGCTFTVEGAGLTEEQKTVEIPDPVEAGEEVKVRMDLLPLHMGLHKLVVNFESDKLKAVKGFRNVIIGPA

T2: rat TG2 (rat, UniProt Q9WVJ6 1-686, limits assumed)
T2 sequence: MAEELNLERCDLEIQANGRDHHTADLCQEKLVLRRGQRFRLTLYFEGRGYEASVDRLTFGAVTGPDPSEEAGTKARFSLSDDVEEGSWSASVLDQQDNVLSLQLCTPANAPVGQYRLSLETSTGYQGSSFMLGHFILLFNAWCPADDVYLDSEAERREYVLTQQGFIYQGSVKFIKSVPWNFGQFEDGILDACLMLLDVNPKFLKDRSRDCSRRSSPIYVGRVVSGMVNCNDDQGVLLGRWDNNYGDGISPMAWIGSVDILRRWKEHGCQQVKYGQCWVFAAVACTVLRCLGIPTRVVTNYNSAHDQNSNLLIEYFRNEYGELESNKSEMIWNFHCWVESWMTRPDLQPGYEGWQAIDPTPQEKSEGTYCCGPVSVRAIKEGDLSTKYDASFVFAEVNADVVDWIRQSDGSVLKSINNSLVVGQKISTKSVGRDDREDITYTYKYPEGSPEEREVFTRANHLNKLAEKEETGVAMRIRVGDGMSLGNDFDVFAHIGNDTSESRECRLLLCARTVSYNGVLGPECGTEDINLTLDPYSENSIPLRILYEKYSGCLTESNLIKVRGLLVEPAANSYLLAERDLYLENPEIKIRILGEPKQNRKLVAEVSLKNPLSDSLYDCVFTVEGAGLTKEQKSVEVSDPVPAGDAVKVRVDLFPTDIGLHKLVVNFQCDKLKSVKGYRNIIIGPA


How the values were obtained:
[1] = biological target: T1, human transglutaminase type 2 (TG2); assay: SPR (Biacore T200), antibody captured on anti-human IgG1 Fc chip, TG2 injected; -Ca2+
Description: Recombinant cynomolgus monkey TG2 was obtained from Trenzyme. Surface plasmon resonance (SPR) was measured on a Biacore T200 instrument (GE Healthcare). CM5 chips (GE Healthcare cat. no.: BR-1006-68) were coated with monoclonal mouse anti-human IgG1 (Fc) (MAH) antibody (GE Healthcare cat. no.: BR-1008-39) by amine-coupling as described in the manufacturers instructions. HBS-EP+ buffer (0.01 M HEPES, 0.15 M NaCl, 3 mM EDTA, 0.05% v/v Surfactant P20) and HBS-P+ buffer (0.01 M HEPES, 0.15 M NaCl, 0.05% Surfactant P20) were purchased from GE Healthcare as 10× stocks (cat. nos.: BR-1006-69 and BR-1006-71). Calcium Chloride solution was obtained from Sigma Aldrich (cat. no.:21115).
The method employed to determine the affinity of the anti-TG2 antibodies involved the capture of the chimeric or humanised antibodies on a MAH coated CM5 chip, followed by the injection of a series of TG2 samples in running buffer. The running buffer was 1×HBS-P+ containing 1 mM CaCl_2, or 1×HBS-EP+ for calcium-free experiments. Antibody capture was carried out for a contact time of 120 seconds at a flow rate of 10 μl/min resulting in the capture of approximately 40-80 RU. TG2 was injected over the immobilised antibody at concentrations ranging from 25 nM to 400 nM with a contact time up to 600 seconds at a flow rate of 30 μl/min. Dissociation of TG2 was typically measured for up to 5400 seconds (1.5 hours). Regeneration of the chip was then performed using 3 M MgCl_2, for a contact time of 60 seconds at a flow rate of […], followed by a 300 s stabilisation period before the next sample. For each of human and cynomolgus monkey TG2, at least 5 injections at a variety of concentrations were performed in at least two separate experiments.
Kinetic data were exported from the Biacore T200 Evaluation Software and analysed using GraphPad Prism, where the association phases and dissociation phases were analysed separately using a one phase association model and one-phase exponential decay model respectively. Association rates ($kon$) were calculated for each curve individually, and dissociation rates ($koff$) values from the long dissociation phase data collected. Where $koff$ values were calculated to be $<1\times10^-5$ s^-1, values were set at 1×10^-5 for analysis, as rates slower than this could not be estimated accurately.

rat TG2 = biological target: T2, rat TG2; assay: cell-based or functional assay

Binder	Kd [1]	koff [1]	kon [1]	IC50 of TG2 activity, 3H putrescine incorporation (rat TG2)
DD9 murine monoclonal antibody (antibody, V domains shown, Mouse hybridoma IgG; heavy chain amplified with primer MHCG2A, kappa light chain; also called mDD9001) VH: not shown VL: QIVLTQSPAIMSASPGEKVTMTCSASSSVDYMYWYQQKPGSSPRLLIYDTSNLASGVPVRFSGSGSGTSYSLTISRMGAEDAATYYCQQWNSSPLTFGAGTKLELK	–	–	–	0.000303 mg/ml IgG per ng TG2
cDH001 chimeric antibody (murine DH2 variable regions) (antibody, human IgG1, V domains shown) VH: not shown VL: QIVLTQSPAIMSASPGEKVTMTCSASSSVSYMYWYQQKPGSSPRLLIYDTSNLASGVPVRFSGSGSGTSYSLTISRMEAEDAATFYCQQWSSSPLTFGAGTKLELK	23 nM	0.00049 s⁻¹	21000 M⁻¹ s⁻¹	–
cDD9001 chimeric antibody (murine DD9 variable regions) (antibody, human IgG1, V domains shown) VH: not shown VL: QIVLTQSPAIMSASPGEKVTMTCSASSSVDYMYWYQQKPGSSPRLLIYDTSNLASGVPVRFSGSGSGTSYSLTISRMGAEDAATYYCQQWNSSPLTFGAGTKLELK	3.1 nM	7.1e-05 s⁻¹	23000 M⁻¹ s⁻¹	–

Continued, values first:

Kd [1]	koff [1]	kon [1]	IC50 of TG2 activity, 3H putrescine incorporation (rat TG2)	Binder
< 0.07 nM	< 1e-05 s⁻¹	150000 M⁻¹ s⁻¹	–	cBB001 chimeric antibody (murine BB7 variable regions) (antibody, human IgG1, V domains shown, also called chimeric BB7) VH: AVQLVESGGGLVKPGGSLKLSCAASGIIFSSSAMSWVRQTPEKRLEWVATISSGGRSTYYPDSVKGRFTVSRDSAKNTLYLQMDSLRSEDTAIYYCAKLISPYWGQGTTLTVSS VL: AIKMTQSPSSMYASLGERVIITCKASQDINSYLTWFQQKPGKSPKTLIYLTNRLMDGVPSRFSGSGSGQEFLLTISGLEHEDMGIYYCLQYVDFPYTFGGGTKLEIK
–	–	–	0.00032 mg/ml IgG per ng TG2	BB7 murine monoclonal antibody (antibody, V domains shown, Mouse hybridoma IgG; heavy chain amplified with primer MHCG1, kappa light chain; also called mBB001) VH: AVQLVESGGGLVKPGGSLKLSCAASGIIFSSSAMSWVRQTPEKRLEWVATISSGGRSTYYPDSVKGRFTVSRDSAKNTLYLQMDSLRSEDTAIYYCAKLISPYWGQGTTLTVSS VL: AIKMTQSPSSMYASLGERVIITCKASQDINSYLTWFQQKPGKSPKTLIYLTNRLMDGVPSRFSGSGSGQEFLLTISGLEHEDMGIYYCLQYVDFPYTFGGGTKLEIK
–	–	–	0.000403 mg/ml IgG per ng TG2	EH6 murine monoclonal antibody (antibody, V domains shown, Mouse hybridoma IgG; heavy chain amplified with primer MHCG2B, kappa light chain) VH: EVQLQQSGPELVKPGASVKMSCKASGYTFTSYVMHWVKQKPGQGLEWIGFINPYNDGTKYNEKFKGKATLTSDKASTTAYMELSSLTSEDSAVYYCARFSSGYWGQGTTLTVSS VL: DVLMTQTPLSLPVSLGDQASISCRSSQSIVHSNGNTYLEWYLQKPGQSPKLLIYKVSNRFSGVPDRFSGSGSGTDFTLKISRVGAEDLGVYYCLQVSHVPFTFGSGTKLEIK
